According to paper PMC11446282:
Substitutions are numbered along the chain they refer to.

B1: IER2 S14: IER2, S14 to alanine (protein, UniProt Q9BTL4 1-223, looked up, variant S14A)
Immediate early response gene …: MEVQKEAQRIMTLAVWKMYHSRMQRGGLRLHRSLQLSLVMRSARELYLSAKVEALEPEVSLPAALPSDPRLHPPREAESTAETATPDGEHPFPEPMDTQEAPTAEETSACCAPRPAKVSRKRRSSSLSDGGDAGLVPSKKARLEEKEEEEGASSEVADRLQPPPAQAEGAFPNLARVLQRRFSGLLNCSPAAPPTAPPACEAKPACRPADSMLNVLVRAVVAF
B2: IER2 Q35: IER2, Q35 to alanine (protein, UniProt Q9BTL4 1-223, looked up, variant Q35A)
Immediate early response gene …: B1 Immediate early response gene … with A14S, Q35A
B3: IER2 Q8: IER2, Q8 to alanine (protein, UniProt Q9BTL4 1-223, looked up, variant Q8A)
Immediate early response gene …: B1 Immediate early response gene … with Q8A, A14S
B4: IER2 W16: IER2, W16 to alanine (protein, UniProt Q9BTL4 1-223, looked up, variant W16A)
Immediate early response gene …: B1 Immediate early response gene … with A14S, W16A
B5: IER2 G27: IER2, G27 to alanine (protein, UniProt Q9BTL4 1-223, looked up, variant G27A)
Immediate early response gene …: B1 Immediate early response gene … with A14S, G27A
B6: IER2 I10: IER2, I10 to alanine (protein, UniProt Q9BTL4 1-223, looked up, variant I10A)
Immediate early response gene …: B1 Immediate early response gene … with I10A, A14S
B7: IER2 R29: IER2, R29 to alanine (protein, UniProt Q9BTL4 1-223, looked up, variant R29A)
Immediate early response gene …: B1 Immediate early response gene … with A14S, R29A
B8: IER2 K17: IER2, K17 to alanine (protein)
chain: B1 Immediate early response gene … with A14S, K17A
B9: IER2 G26: IER2, G26 to alanine (protein, UniProt Q9BTL4 1-223, looked up, variant G26A)
Immediate early response gene …: B1 Immediate early response gene … with A14S, G26A
B10: IER2 S37: IER2, S37 to alanine (protein, UniProt Q9BTL4 1-223, looked up, variant S37A)
Immediate early response gene …: B1 Immediate early response gene … with A14S, S37A
B11: IER2 R32: IER2, R32 to alanine (protein, UniProt Q9BTL4 1-223, looked up, variant R32A)
Immediate early response gene …: B1 Immediate early response gene … with A14S, R32A
B12: IER2 L13: IER2, L13 to alanine (protein, UniProt Q9BTL4 1-223, looked up, variant L13A)
Immediate early response gene …: B1 Immediate early response gene … with L13A, A14S
B13: IER2 L28: IER2, L28 to alanine (protein, UniProt Q9BTL4 1-223, looked up, variant L28A)
Immediate early response gene …: B1 Immediate early response gene … with A14S, L28A
B14: IER2 L30: IER2, L30 to alanine (protein)
chain: B1 Immediate early response gene … with A14S, L30A
B15: IER2 L36: IER2, L36 to alanine (protein, UniProt Q9BTL4 1-223, looked up, variant L36A)
Immediate early response gene …: B1 Immediate early response gene … with A14S, L36A
B16: IER2 V15: IER2, V15 to alanine (protein, UniProt Q9BTL4 1-223, looked up, variant V15A)
Immediate early response gene …: B1 Immediate early response gene … with A14S, V15A
B17: IER2 Q24: IER2, Q24 to alanine (protein, UniProt Q9BTL4 1-223, looked up, variant Q24A)
Immediate early response gene …: B1 Immediate early response gene … with A14S, Q24A
B18: IER2 M11: IER2, M11 to alanine (protein, UniProt Q9BTL4 1-223, looked up, variant M11A)
Immediate early response gene …: B1 Immediate early response gene … with M11A, A14S
B19: IER2 S33: IER2, S33 to alanine (protein, UniProt Q9BTL4 1-223, looked up, variant S33A)
Immediate early response gene …: B1 Immediate early response gene … with A14S, S33A
B20: IER2 H31: IER2, H31 to alanine (protein, UniProt Q9BTL4 1-223, looked up, variant H31A)
Immediate early response gene …: B1 Immediate early response gene … with A14S, H31A
B21: IER2 L34: IER2, L34 to alanine (protein)
chain: B1 Immediate early response gene … with A14S, L34A
B22: IER2 R25: IER2, R25 to alanine (protein, UniProt Q9BTL4 1-223, looked up, variant R25A)
Immediate early response gene …: B1 Immediate early response gene … with A14S, R25A
B23: IER2 M23: IER2, M23 to alanine (protein, UniProt Q9BTL4 1-223, looked up, variant M23A)
Immediate early response gene …: B1 Immediate early response gene … with A14S, M23A
B24: IER2 T12: IER2, T12 to alanine (protein, UniProt Q9BTL4 1-223, looked up, variant T12A)
Immediate early response gene …: B1 Immediate early response gene … with T12A, A14S
B25: IER2 R9: IER2, R9 to alanine (protein, UniProt Q9BTL4 1-223, looked up, variant R9A)
Immediate early response gene …: B1 Immediate early response gene … with R9A, A14S
B26: PME1 M8: PME1, M8 to alanine (protein, UniProt Q9Y570 2-386, looked up, variant M8A)
Protein phosphatase …: SALEKSAHLGRLPSRPPLPGSGGSQSGAKMRMGPGRKRDFSPVPWSQYFESMEDVEVENETGKDTFRVYKSGSEGPVLLLLHGGGHSALSWAVFTAAIISRVQCRIVALDLRSHGETKVKNPEDLSAETMAKDVGNVVEAMYGDLPPPIMLIGHSMGGAIAVHTASSNLVPSLLGLCMIDVVEGTAMDALNSMQNFLRGRPKTFKSLENAIEWSVKSGQIRNLESARVSMVGQVKQCEGITSPEGSKSIVEGIIEEEEEDEEGSESISKRKKEDDMETKKDHPYTWRIELAKTEKYWDGWFRGLSNLFLSCPIPKLLLLAGVDRLDKDLTIGQMQGKFQMQVLPQCGHAVHEDAPDKVAEAVATFLIRHRFAEPIGGFQCVFPGC
B27: PME1 H9: PME1, H9 to alanine (protein, UniProt Q9Y570 2-386, looked up, variant H9A)
Protein phosphatase …: B26 Protein phosphatase … with A7M, H8A
B28: PME1 K6: PME1, K6 to alanine (protein, UniProt Q9Y570 2-386, looked up, variant K6A)
Protein phosphatase …: B26 Protein phosphatase … with K5A, A7M
B29: PME1 S7: PME1, S7 to alanine (protein, UniProt Q9Y570 2-386, looked up, variant S7A)
Protein phosphatase …: B26 Protein phosphatase … with S6A, A7M
B30: PME1 E5: PME1, E5 to alanine (protein, UniProt Q9Y570 2-386, looked up, variant E5A)
Protein phosphatase …: B26 Protein phosphatase … with E4A, A7M
B31: PME1 L4: PME1, L4 to alanine (protein, UniProt Q9Y570 2-386, looked up, variant L4A)
Protein phosphatase …: B26 Protein phosphatase … with L3A, A7M
B32: PME1 R12: PME1, R12 to alanine (protein, UniProt Q9Y570 2-386, looked up, variant R12A)
Protein phosphatase …: B26 Protein phosphatase … with A7M, R11A
B33: PME1 G11: PME1, G11 to alanine (protein, UniProt Q9Y570 2-386, looked up, variant G11A)
Protein phosphatase …: B26 Protein phosphatase … with A7M, G10A
B34: PME1 L10: PME1, L10 to alanine (protein, UniProt Q9Y570 2-386, looked up, variant L10A)
Protein phosphatase …: B26 Protein phosphatase … with A7M, L9A
B35: RBM7 M147: RBM7, M147 to alanine (protein, UniProt Q9Y580 2-266, looked up, variant M147A)
RNA-binding protein 7: GAAAAEADRTLFVGNLETKVTEELLFELFHQAGPVIKVKIPKDKDGKPKQFAFVNFKHEVSVPYAMNLLNGIKLYGRPIKIQFRSGSSHAPQDVSLSYPQHHVGNSSPTSTSPSRYERTMDNMTSSAQIIQRSFSSPENFQRQAVANSALRQMSYGGKFGSSPLDQSGFSPSVQSHSHSFNQSSSSQWRQGTPSSQRKVRMNSYPYLADRHYSREQRYTDHGSDHHYRGKRDDFFYEDRNHDDWSHDYDNRRDSSRDGKWRSSRH
B36: RBM7 S149: RBM7, S149 to alanine (protein, UniProt Q9Y580 2-266, looked up, variant S149A)
RNA-binding protein 7: B35 RNA-binding protein 7 with A146M, S148A
B37: RBM7 L151: RBM7, L151 to alanine (protein, UniProt Q9Y580 2-266, looked up, variant L151A)
RNA-binding protein 7: B35 RNA-binding protein 7 with A146M, L150A
B38: RBM7 R152: RBM7, R152 to alanine (protein, UniProt Q9Y580 2-266, looked up, variant R152A)
RNA-binding protein 7: B35 RNA-binding protein 7 with A146M, R151A
B39: RBM7 N148: RBM7, N148 to alanine (protein, UniProt Q9Y580 2-266, looked up, variant N148A)
RNA-binding protein 7: B35 RNA-binding protein 7 with A146M, N147A

The molecules below were run on PP2A-B55α (assay: Single alanine mutational scan, YFP-tagged interactors immunoprecipitated from HeLa cells, Western blot). Settings: single alanine mutant of YFP-tagged IER2.
Type: binding, human
Description: Standard cloning techniques were used throughout. Point mutations were introduced by whole plasmid polymerase chain reaction (PCR). All constructs were fully sequenced. Synthetic DNA was purchased from GeneArt, Life Technologies and cloned into pcDNA5/FRT/TO (Invitrogen) expression vector containing YFP, resulting in the indicated YFP fusion proteins. These constructs were transiently transfected into HeLa cells 24 hours before harvesting cells. Cells were lysed in lysis buffer [50 mM tris-HCl (pH 7.5), 50 mM NaCl, 1 mM EDTA, 1 mM […], and 0.1% NP-40]. Complexes were immunoprecipitated at 4°C in lysis buffer with green fluorescent protein (GFP)–Trap (ChromoTek) and washed in lysis buffer. Precipitated protein complexes were washed three times in lysis buffer, eluted in 2× SDS sample buffer, and subjected to Western blotting or MS as indicated.
Work on B1 yielded an Experimental % binding of 83%.
B2 was tested, and the Experimental % binding was 67%.
B3 gave an Experimental % binding of 90%.
In the case of B4, the Experimental % binding is reported as 100%.
Molecule B5 has an Experimental % binding of 77%.
In the case of B6, the Experimental % binding is reported as 81%.
B7 showed an Experimental % binding of 90%.
In the case of B8, the Experimental % binding is reported as 10%.
Molecule B9 has an Experimental % binding of 87%.
In the case of B10, the Experimental % binding is reported as 62%.
Work on B11 yielded an Experimental % binding of 70%.
Work on B12 yielded an Experimental % binding of 80%.
B13 showed an Experimental % binding of 102%.
In the case of B14, the Experimental % binding is reported as 81%.
B15 gave an Experimental % binding of 66%.
In the case of B16, the Experimental % binding is reported as 91%.
Work on B17 yielded an Experimental % binding of 118%.
B18 showed an Experimental % binding of 81%.
B19 was tested, and the Experimental % binding was 58%.
For B20, the Experimental % binding was 61%.
B21 gave an Experimental % binding of 74%.
In the case of B22, the Experimental % binding is reported as 76%.
Work on B23 yielded an Experimental % binding of 94%.
In the case of B24, the Experimental % binding is reported as 94%.
Molecule B25 has an Experimental % binding of 78%.

Same assay, conditions: single alanine mutant of YFP-tagged PME1
Work on B26 yielded an Experimental % binding of 2%.
Work on B27 yielded an Experimental % binding of 88%.
Molecule B28 has an Experimental % binding of 2%.
For B29, the Experimental % binding was 220%.
For B30, the Experimental % binding was 108%.
Molecule B31 has an Experimental % binding of 1%.
Molecule B32 has an Experimental % binding of 10%.
In the case of B33, the Experimental % binding is reported as 108%.
For B34, the Experimental % binding was 52%.

Same assay, conditions: single alanine mutant of YFP-tagged RBM7
Work on B35 yielded an Experimental % binding of 9%.
For B36, the Experimental % binding was 109%.
B37 was tested, and the Experimental % binding was 47%.
Molecule B38 has an Experimental % binding of 62%.
B39 gave an Experimental % binding of 29%.
